From article PMC6698644 (Nucleic Acids Research, 2019)

Key:
LeuO-S120D-His6 [1] = molecular target: T1, LeuO-S120D-His6 (Escherichia coli K12, UniProt P10151 1-314, S120D); assay: SPR
T1 sequence: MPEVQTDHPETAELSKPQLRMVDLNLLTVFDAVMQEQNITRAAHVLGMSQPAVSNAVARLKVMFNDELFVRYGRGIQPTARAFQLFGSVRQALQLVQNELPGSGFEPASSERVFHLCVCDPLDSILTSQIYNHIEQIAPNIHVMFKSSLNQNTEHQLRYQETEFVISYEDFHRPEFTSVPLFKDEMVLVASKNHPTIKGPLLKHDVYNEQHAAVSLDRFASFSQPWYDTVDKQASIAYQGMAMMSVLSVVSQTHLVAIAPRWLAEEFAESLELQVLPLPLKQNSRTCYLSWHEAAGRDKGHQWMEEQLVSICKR

LeuO-DBD-His6 = molecular target: T2, LeuO-DBD-His6 (Escherichia coli K12, UniProt P10151 1-101); assay: SPR
T2 sequence: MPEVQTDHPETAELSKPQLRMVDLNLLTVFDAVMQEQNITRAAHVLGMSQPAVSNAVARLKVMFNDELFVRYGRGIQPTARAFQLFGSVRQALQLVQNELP

LeuO-His6 (wild type) [2] = molecular target: T3, LeuO-His6 (wild type) (Escherichia coli K12, UniProt P10151 1-314); assay: SPR
T3 sequence: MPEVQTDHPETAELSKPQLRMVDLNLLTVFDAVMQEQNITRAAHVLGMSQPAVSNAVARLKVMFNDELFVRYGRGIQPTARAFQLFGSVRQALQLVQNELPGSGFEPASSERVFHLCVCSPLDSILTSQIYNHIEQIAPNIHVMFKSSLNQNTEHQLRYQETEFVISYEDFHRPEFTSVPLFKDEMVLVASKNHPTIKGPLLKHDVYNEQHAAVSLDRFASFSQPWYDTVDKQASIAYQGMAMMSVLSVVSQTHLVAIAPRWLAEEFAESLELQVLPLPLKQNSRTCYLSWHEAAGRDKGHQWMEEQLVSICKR

crystal structure = molecular target: the molecule itself; assay: crystal structure
LeuO-S120D-His6 [3] = molecular target: T1, LeuO-S120D-His6; assay: SPR; remark: listed apart in the source
LeuO-His6 (wild type) [4] = molecular target: T3, LeuO-His6 (wild type); assay: SPR; remark: listed apart in the source
LeuO-S120D-His6 [5] = molecular target: T1, LeuO-S120D-His6; assay: gel filtration
LeuO-His6 (wild type) [6] = molecular target: T3, LeuO-His6 (wild type); assay: gel filtration
SEC = molecular target: the molecule itself; assay: SEC

B1: SPR fragment C, scrambled (60 bp) (dsDNA)
DNA 1: GGGGGGTAAATTACATAATGCGATTAAAATTTATTTTCAAAAGTTTAATTTAACATTGAATTTATGGGGG
DNA 2: CCCCCATAAATTCAATGTTAAATTAAACTTTTGAAAATAAATTTTAATCGCATTATGTAATTTACCCCCC
binding result (LeuO-S120D-His6 [1]): no binding | binding result (LeuO-DBD-His6): no binding | binding result (LeuO-His6 (wild type) [2]): no binding

B2: LeuO-S120D effector-binding domain, C-terminally histidine-tagged (LeuO-S120D-EBD_(His6)) (domain or fragment, Escherichia coli)
chain: SSERVFHLCVCDPLDSILTSQIYNHIEQIAPNIHVMFKSSLNQNTEHQLRYQETEFVISYEDFHRPEFTSVPLFKDEMVLVASKNHPTIKGPLLKHDVYNEQHAAVSLDRFASFSQPWYDTVDKQASIAYQGMAMMSVLSVVSQTHLVAIAPRWLAEEFAESLELQVLPLPLKQNSRTCYLSWHEAAGRDKGHQWMEEQLVSICKR
binding result (crystal structure): binds

B3: SPR fragment B, cas core-site (25 bp) (dsDNA)
DNA 1: GGGGGTTTATATTCACAGTATGAATATTTTGGGGG
DNA 2: CCCCCAAAATATTCATACTGTGAATATAAACCCCC
Kd (LeuO-S120D-His6 [3]): 0.6 nM | Kd (LeuO-His6 (wild type) [4]): 0.9 nM

B4: SPR fragment A, cas LeuO site II (60 bp) (dsDNA)
DNA 1: GGGGGTTTATATTCACAGTATGAATATTTTATGTAATAAAATTCATGGTAATTATTATAACTAAAGGGGG
DNA 2: CCCCCTTTAGTTATAATAATTACCATGAATTTTATTACATAAAATATTCATACTGTGAATATAAACCCCC
Kd (LeuO-S120D-His6 [3]): 0.2 nM | Kd (LeuO-His6 (wild type) [4]): 0.7 nM

B5: gel filtration fragment, cas LeuO site II (60 bp) (dsDNA)
DNA 1: TTTATATTCACAGTATGAATATTTTATGTAATAAAATTCATGGTAATTATTATAACTAAA
DNA 2: TTTAGTTATAATAATTACCATGAATTTTATTACATAAAATATTCATACTGTGAATATAAA
binding result (LeuO-S120D-His6 [5]): binds | binding result (LeuO-His6 (wild type) [6]): binds

B6: LeuO, C-terminally histidine-tagged (LeuO_(His6)) (natural protein, Escherichia coli, UniProt P10151 1-314, looked up)
chain: MPEVQTDHPETAELSKPQLRMVDLNLLTVFDAVMQEQNITRAAHVLGMSQPAVSNAVARLKVMFNDELFVRYGRGIQPTARAFQLFGSVRQALQLVQNELPGSGFEPASSERVFHLCVCSPLDSILTSQIYNHIEQIAPNIHVMFKSSLNQNTEHQLRYQETEFVISYEDFHRPEFTSVPLFKDEMVLVASKNHPTIKGPLLKHDVYNEQHAAVSLDRFASFSQPWYDTVDKQASIAYQGMAMMSVLSVVSQTHLVAIAPRWLAEEFAESLELQVLPLPLKQNSRTCYLSWHEAAGRDKGHQWMEEQLVSICKR
stoichiometry N (SEC): 4

B7: LeuO-S120D, C-terminally histidine-tagged (LeuO-S120D_(His6)) (natural protein, Escherichia coli, UniProt P10151 1-314, looked up)
chain: MPEVQTDHPETAELSKPQLRMVDLNLLTVFDAVMQEQNITRAAHVLGMSQPAVSNAVARLKVMFNDELFVRYGRGIQPTARAFQLFGSVRQALQLVQNELPGSGFEPASSERVFHLCVCDPLDSILTSQIYNHIEQIAPNIHVMFKSSLNQNTEHQLRYQETEFVISYEDFHRPEFTSVPLFKDEMVLVASKNHPTIKGPLLKHDVYNEQHAAVSLDRFASFSQPWYDTVDKQASIAYQGMAMMSVLSVVSQTHLVAIAPRWLAEEFAESLELQVLPLPLKQNSRTCYLSWHEAAGRDKGHQWMEEQLVSICKR
stoichiometry N (SEC): 4
